Results reported in article PMC3314968.
pKd: −log10 of the molar value.

Experiments:
K48-linked diubiquitin = K48-linked diubiquitin (UniProt P0CG48); assay: ITC; conditions: domain or fragment
K63-linked diubiquitin = K63-linked diubiquitin (UniProt P0CG48); assay: ITC; conditions: domain or fragment

Chain of human UBAP1 SOUBA domain (389-502), wild-type (Q9NZ09 389-502): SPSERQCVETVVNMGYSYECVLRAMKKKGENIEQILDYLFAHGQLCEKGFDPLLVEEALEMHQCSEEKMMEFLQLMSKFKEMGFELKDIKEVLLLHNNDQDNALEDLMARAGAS

human UBAP1 SOUBA domain (389-502), wild-type (from UniProt Q9NZ09 389-502)
pKd (K48-linked diubiquitin): 4.19
pKd (K63-linked diubiquitin): 4.39
